The numbers were not newly measured in article PMC9780825, “Combining mKate2-Kv1.3 Channel and Atto488-Hongotoxin for the Studies of Peptide Pore Blockers on Living Eukaryotic Cells” (Toxins, 2022), which cites them from elsewhere.

As usually defined, the Kd is the constant that tells how readily two partners part at equilibrium.

In series [1] the target is Kv1.3 (Mus musculus) (UniProt P16390). Briefly: whole-cell patch clamp.
In series [2] the target is Kv1.3 (Homo sapiens) (UniProt P22001). The experiment in a line: two-electrode voltage clamp. On the technique in general: Two-electrode voltage clamp holds a large cell at a set potential and records current.
The target in series [3] is Kv1.3 (Rattus norvegicus) (UniProt P15384). Briefly: two-electrode voltage clamp.
Series [4] deals with Kv1.3 (Homo sapiens) (UniProt P22001). The experiment in a line: radioligand analysis.
The target is the same in series [5]. Briefly: Rb+ efflux.

Kv1.3 (Mus musculus), sequence (P16390 whole entry): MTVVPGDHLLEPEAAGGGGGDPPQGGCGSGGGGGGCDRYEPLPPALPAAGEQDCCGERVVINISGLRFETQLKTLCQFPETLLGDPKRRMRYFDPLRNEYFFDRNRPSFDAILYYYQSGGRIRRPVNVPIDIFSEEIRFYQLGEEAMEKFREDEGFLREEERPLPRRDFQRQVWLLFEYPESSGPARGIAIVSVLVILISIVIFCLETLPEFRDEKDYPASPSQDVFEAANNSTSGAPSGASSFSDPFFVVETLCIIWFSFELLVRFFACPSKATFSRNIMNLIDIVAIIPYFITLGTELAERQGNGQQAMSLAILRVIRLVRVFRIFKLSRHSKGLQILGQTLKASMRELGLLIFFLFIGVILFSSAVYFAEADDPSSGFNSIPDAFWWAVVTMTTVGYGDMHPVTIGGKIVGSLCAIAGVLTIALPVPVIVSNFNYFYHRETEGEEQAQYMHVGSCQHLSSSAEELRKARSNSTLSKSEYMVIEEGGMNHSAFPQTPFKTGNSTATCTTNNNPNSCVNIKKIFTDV
agitoxin 2, sequence (P46111 whole entry): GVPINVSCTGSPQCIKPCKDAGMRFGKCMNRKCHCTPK
Kv1.3 (Homo sapiens), sequence (P22001 whole entry): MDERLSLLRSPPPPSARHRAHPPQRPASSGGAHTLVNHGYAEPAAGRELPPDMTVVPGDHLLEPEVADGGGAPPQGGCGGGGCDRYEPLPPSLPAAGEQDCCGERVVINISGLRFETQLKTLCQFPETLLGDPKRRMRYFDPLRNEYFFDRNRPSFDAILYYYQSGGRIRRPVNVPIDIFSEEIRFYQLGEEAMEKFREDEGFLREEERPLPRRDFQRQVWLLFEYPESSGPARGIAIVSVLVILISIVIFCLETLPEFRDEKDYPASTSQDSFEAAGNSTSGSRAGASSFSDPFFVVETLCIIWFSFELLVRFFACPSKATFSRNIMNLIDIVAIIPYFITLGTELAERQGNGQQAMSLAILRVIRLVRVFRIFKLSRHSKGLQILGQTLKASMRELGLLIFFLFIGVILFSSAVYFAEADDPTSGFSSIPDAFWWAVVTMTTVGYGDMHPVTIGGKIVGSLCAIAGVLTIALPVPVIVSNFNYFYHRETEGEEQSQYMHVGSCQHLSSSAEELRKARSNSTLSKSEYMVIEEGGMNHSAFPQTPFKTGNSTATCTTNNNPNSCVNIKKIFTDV
hongotoxin 1, sequence (P59847 whole entry): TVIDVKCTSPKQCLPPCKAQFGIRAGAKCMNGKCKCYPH
kaliotoxin 1, sequence (P24662 whole entry): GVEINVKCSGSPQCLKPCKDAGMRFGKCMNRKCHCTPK
charybdotoxin, sequence (P13487 23-59): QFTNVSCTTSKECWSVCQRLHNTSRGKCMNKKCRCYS
Kv1.3 (Rattus norvegicus), sequence (P15384 whole entry): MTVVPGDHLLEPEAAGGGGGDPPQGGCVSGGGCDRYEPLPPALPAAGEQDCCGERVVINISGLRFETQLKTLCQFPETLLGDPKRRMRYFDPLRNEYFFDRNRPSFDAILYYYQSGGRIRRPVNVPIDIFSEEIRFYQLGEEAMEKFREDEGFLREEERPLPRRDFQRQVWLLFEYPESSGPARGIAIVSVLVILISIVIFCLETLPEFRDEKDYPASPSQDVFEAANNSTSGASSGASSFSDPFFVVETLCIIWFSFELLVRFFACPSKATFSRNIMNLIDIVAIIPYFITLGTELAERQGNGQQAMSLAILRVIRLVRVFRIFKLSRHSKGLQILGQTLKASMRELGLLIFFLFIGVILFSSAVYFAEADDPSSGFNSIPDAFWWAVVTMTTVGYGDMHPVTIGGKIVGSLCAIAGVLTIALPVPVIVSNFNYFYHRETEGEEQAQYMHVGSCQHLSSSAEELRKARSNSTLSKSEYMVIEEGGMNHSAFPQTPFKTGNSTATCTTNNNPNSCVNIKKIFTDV

As for kaliotoxin 1 (from UniProt P24662), the figures for the dissociation constant (Kd) in series [1] and in series [2] were 0.65 nM and 0.01 nM, respectively.

Regarding charybdotoxin (from UniProt P13487), the dissociation constant (Kd) was 3 nM in series [1] and 0.9 nM in series [2].

In the case of agitoxin 2 (from UniProt P46111), the dissociation constant Kd in series [1] was 0.2 nM; in series [2], 0.05 nM; in series [3] it was 0.004 nM.

Consider hongotoxin 1 (from UniProt P59847), for which the Kd was 0.00024 nM in series [4] and 0.086 nM in series [5].
